Data taken from publication PMC5980995, “An allostatic mechanism for M2 pyruvate kinase as an amino-acid sensor” (Biochemical Journal, 2018).

Target: the molecule itself
Test: cell-based or functional assay

B1: M2 isoenzyme of pyruvate kinase (M2PYK), human, N-terminal His6 tag (enzyme)
chain: not shown
half-life of the loss of enzyme activity (LDH-coupled assay) after dilution from 20 mg/ml to 0.002 mg/ml in PBS-CM pH 7.4, taken as dissociation of the tetramer: ~15 min
